Assay results published in paper PMC3958483, “Fine Specificity and Molecular Competition in SLAM Family Receptor Signalling” (PLoS ONE, 2014).
pKd: −log10 of the molar value.

How the values were obtained:
Test in all cases: SPR; biotinylated phosphopeptides immobilised on streptavidin chip (about 25 RU single, 50 RU tandem motifs); soluble recombinant protein injected; 37°C; HBS-EP; equilibrium binding (Table 4; same-day purification not given)
[1] = target: CD244 ITSM3 phosphopeptide (human)
[2] = target: CD244 ITSM4 phosphopeptide (human)
[3] = target: CD244 ITSM2 phosphopeptide (human)

Sequence of SAP (recombinant full-length human SAP) (O60880 whole entry): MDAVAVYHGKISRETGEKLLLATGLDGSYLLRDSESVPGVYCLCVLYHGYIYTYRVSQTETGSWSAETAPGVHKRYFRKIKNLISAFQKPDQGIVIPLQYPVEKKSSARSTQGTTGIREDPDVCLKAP

SAP (recombinant full-length human SAP) (from UniProt O60880 1-128) (natural protein)
pKd [1]: 7.10
pKd [2]: 5.72
pKd [3]: 7.70
